Test [1] in a line: ω-transaminase enzyme activity assay, reverse direction (5-aminopentanoate to glutarate semialdehyde), cell free extract. The test is classed as biochemical. The note with it: 10 mM 5-aminopentanoate, 10 mM pyruvate, pH 7.5, 25° C., 4 hours; against the empty vector control; FIG. 15. On the procedure:
(§1) A nucleotide sequence encoding an N-terminal His-tag was added to the genes from Chromobacterium violaceum and Rhodobacter sphaeroides encoding the ω-transaminases of SEQ ID NOs: 8 and 10 respectively (see FIG. 10) such that N-terminal HIS tagged ω-transaminases could be produced. Each of the resulting modified genes was cloned into a pET21a expression vector under control of the T7 promoter and each expression vector was transformed into a BL21[DE3] E. coli host. The resulting recombinant E. coli strains were cultivated at 37° C. in a 250 mL shake flask culture containing 50 mL LB media and antibiotic selection pressure, with shaking at 230 rpm. Each culture was induced overnight at 16° C. using 1 mM IPTG.
(§2) The pellet from each induced shake flask culture was harvested via centrifugation. Each pellet was resuspended and lysed via sonication. The cell debris was separated from the supernatant via centrifugation and the cell free extract was used immediately in enzyme activity assays.
Enzyme activity assays in the reverse direction (i.e., 5-aminopentanoate to glutarate semialdehyde) were performed in a buffer composed of a final concentration of 50 mM HEPES buffer (pH=7.5), 10 mM 5-aminopentanoate, 10 mM pyruvate and 100 μM pyridoxyl 5′ phosphate. […] The formation of L-alanine from pyruvate was quantified via RP-HPLC.

A short description of test [2]: ω-transaminase enzyme activity assay, forward direction (glutarate semialdehyde to 5-aminopentanoate), cell free extract. The test is classed as biochemical. The note with it: conclusion from reverse and forward direction assays. Here is the method:
as §1, §2
Enzyme activity in the forward direction (i.e., glutarate semialdehyde to 5-aminopentanoate) was confirmed for the transaminase of SEQ ID NO: 10. Enzyme activity assays were performed in a buffer composed of a final concentration of 50 mM HEPES buffer (pH=7.5), 10 mM glutarate semialdehyde, 10 mM L-alanine and 100 μM pyridoxyl 5′ phosphate. Each enzyme activity assay reaction was initiated by adding a cell free extract of the ω-transaminase gene product or the empty vector control to the assay buffer containing the glutarate semialdehyde and incubated at 25° C. for 4 hours, with shaking at 250 rpm. The formation of pyruvate was quantified via RP-HPLC.

B1: SEQ ID NO: 8: Chromobacterium violaceum ω-transaminase, N-terminal HIS tagged, cell free extract (protein, listed as Chromobacterium violaceum)
chain: MQKQRTTSQWRELDAAHHLHPFTDTASLNQAGARVMTRGEGVYLWDSEGNKIIDGMAGLWCVNVGYGRKDFAEAARRQMEELPFYNTFFKTTHPAVVELSSLLAEVTPAGFDRVFYTNSGSESVDTMIRMVRRYWDVQGKPEKKTLIGRWNGYHGSTIGGASLGGMKYMHEQGDLPIPGMAHIEQPWWYKHGKDMTPDEFGVVAARWLEEKILEIGADKVAAFVGEPIQGAGGVIVPPATYWPEIERICRKYDVLLVADEVICGFGRTGEWFGHQHFGFQPDLFTAAKGLSSGYLPIGAVFVGKRVAEGLIAGGDFNHGFTYSGHPVCAAVAHANVAALRDEGIVQRVKDDIGPYMQKRWRETFSRFEHVDDVRGVGMVQAFTLVKNKAKRELFPDFGEIGTLCRDIFFRNNLIMRACGDHIVSAPPLVMTRAEVDEMLAVAERCLEEFEQTLKARGLA
modifications: N-terminal His tag
notes: Chromobacterium violaceum ω-transaminase, N-terminal HIS tagged, cell free extract
Consider B1, for which, in test [1], the “acceptance of 5-aminopentanoate as substrate (formation of L-alanine from pyruvate, RP-HPLC)” value is listed as “accepted 5-aminopentanoate as substrate”. Further, the “acceptance of glutarate semialdehyde as substrate and synthesis of 5-aminopentanoate, concluded from reversibility of the ω-transaminase activity” value in test [2] is “accepted glutarate semialdehyde as substrate and synthesized 5-aminopentanoate”.
